# Reference: article PMC5681985, “Conserved Molecular Mechanism of TyrA Dehydrogenase Substrate Specificity Underlying Alternative Tyrosine Biosynthetic Pathways in Plants and Microbes” (Frontiers in Molecular Biosciences, 2017)
# What was measured:
# [1] = target: T1, OiTyrA (OiTyrAa) (Brucella intermedia, UniProt C4WNJ2); assay type: biochemical
# T1 construct: gene OINT_2001142
# [2] = tested on: T2, O=C(O)C(=O)CC1(C(=O)O)C=CC(O)C=C1; experiment: A340 reduced cofactor formation, Michaelis-Menten fit; assay type: biochemical, Methanothrix harundinacea; details: 25 mM HEPES pH 7.6, 50 mM KCl, 10% ethylene glycol
# T2 construct: full-length, codon-optimized, N-terminal 6xHis tag (pET28a), E. coli Rosetta2 (DE3), HisTrap purified; monofunctional enzyme
# Excerpt: (§1) A340 reduced cofactor formation, Michaelis-Menten fit on MhTyrA (MhTyrAp)
# [3] = tested on: T3, N[C@@H](CC1(C(=O)O)C=CC(O)C=C1)C(=O)O; experiment: as above; assay type: biochemical, Methanothrix harundinacea; details: 0.8 mM preferred cofactor (NADP+), 25 mM HEPES pH 7.6, 50 mM KCl, 10% ethylene glycol
# T3 construct: full-length, codon-optimized, N-terminal 6xHis tag (pET28a), E. coli Rosetta2 (DE3), HisTrap purified; monofunctional enzyme
# Excerpt: as §1
# [4] = substrate: N[C@@H](CC1(C(=O)O)C=CC(O)C=C1)C(=O)O; experiment: as above; assay type: biochemical, Sediminispirochaeta smaragdinae; details: 25 mM HEPES pH 7.6, 50 mM KCl, 10% ethylene glycol
# Excerpt: (§2) A340 reduced cofactor formation, Michaelis-Menten fit on SsTyrA (SsTyrAa)
# [5] = substrate: O=C(O)C(=O)CC1(C(=O)O)C=CC(O)C=C1; experiment: as above; assay type: biochemical, Sediminispirochaeta smaragdinae; details: 0.8 mM preferred cofactor, 25 mM HEPES pH 7.6, 50 mM KCl, 10% ethylene glycol
# Excerpt: as §2
# [6] = 0.8 mM preferred cofactor (NADP+)
# [7] = 0.8 mM preferred cofactor (NAD+ slightly preferred)
# T1 sequence (C4WNJ2 1-269 limits assumed): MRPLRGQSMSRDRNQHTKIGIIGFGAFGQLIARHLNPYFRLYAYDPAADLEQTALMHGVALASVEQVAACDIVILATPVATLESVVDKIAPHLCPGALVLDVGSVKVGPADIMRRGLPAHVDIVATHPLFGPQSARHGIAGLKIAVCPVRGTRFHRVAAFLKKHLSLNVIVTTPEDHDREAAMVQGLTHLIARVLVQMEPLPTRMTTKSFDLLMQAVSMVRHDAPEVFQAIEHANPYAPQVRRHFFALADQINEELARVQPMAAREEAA
molecule,measurement,setting,value
N[C@@H](CC1(C(=O)O)C=CC(O)C=C1)C(=O)O (some centres unmarked) [arogenate],"HPLC product assay, 45 min",[1],E. coli cell lysate expressing OiTyrA had ADH but not PDH activity
MhTyrA (MhTyrAp) (Methanothrix harundinacea),Km,[2]; 0.8 mM NADP+,378 ± 20 µM
same,kcat,[2]; 0.8 mM NADP+,2.44 ± 0.38 s⁻¹
same,kcat/Km,[2]; 0.8 mM NADP+,6440 ± 540 M⁻¹ s⁻¹
MhTyrA (MhTyrAp) (Methanothrix harundinacea; Q227E),Km,[3],3290 ± 220 µM
same,kcat,[3],0.704 ± 0.03 s⁻¹
same,kcat/Km,[3],213 ± 50 M⁻¹ s⁻¹
same,Km,[2]; [6],2669 ± 320 µM
same,kcat,[2]; [6],0.285 ± 0.02 s⁻¹
same,kcat/Km,[2]; [6],107 ± 40 M⁻¹ s⁻¹
NC(=O)c1ccc[n+]([C@@H]2O[C@H](COP(=O)(O)OP(=O)(O)OC[C@H]3O[C@@H](n4cnc5c(N)ncnc54)[C@H](O)[C@@H]3O)[C@@H](O)[C@H]2O)c1 [NAD^+],"HPLC product assay, 45 min",[1],strongly preferred NAD^+ over NADP^+ cofactor
"SsTyrA (SsTyrAa) (Sediminispirochaeta smaragdinae DSM 11293) (protein, full-length, codon-optimized, N-terminal 6xHis tag (pET28a), E. coli Rosetta2 (DE3), HisTrap purified) MVEHTVGIYGLGRFGSFWAKSLAASGLKVIGYNRSKRALPEGVVSGSETEVLSCNTLFYCVAISSFEEVLSRTAAKIGKHTLVFDTCSVKVEPVRTMERLLPQGCTFAGSHPMFGPDSASEGMDGLPMVLCPGRDDEGKVDFWRHHFSKMGLRVIEITADRHDKEAAYTQGITHVVGRILGELDLHESEIATSGYKRLLQVREQTCNDPLQLFIDLQRYNPYTHGMRMELTSALEQIMTLFAQADLPPDRP",Km,[4]; [7],901 ± 150 µM
same,kcat,[4]; [7],3.44 ± 0.31 s⁻¹
same,kcat/Km,[4]; [7],4030 ± 1010 M⁻¹ s⁻¹
"SsTyrA (SsTyrAa) (Sediminispirochaeta smaragdinae DSM 11293; D208N) (protein, full-length, codon-optimized, N-terminal 6xHis tag (pET28a), E. coli Rosetta2 (DE3), HisTrap purified) MVEHTVGIYGLGRFGSFWAKSLAASGLKVIGYNRSKRALPEGVVSGSETEVLSCNTLFYCVAISSFEEVLSRTAAKIGKHTLVFDTCSVKVEPVRTMERLLPQGCTFAGSHPMFGPDSASEGMDGLPMVLCPGRDDEGKVDFWRHHFSKMGLRVIEITADRHDKEAAYTQGITHVVGRILGELDLHESEIATSGYKRLLQVREQTCNNPLQLFIDLQRYNPYTHGMRMELTSALEQIMTLFAQADLPPDRP",Km,[4]; 0.8 mM preferred cofactor,847 ± 160 µM
same,kcat,[4]; 0.8 mM preferred cofactor,0.45 ± 0.01 s⁻¹
same,kcat/Km,[4]; 0.8 mM preferred cofactor,568 ± 140 M⁻¹ s⁻¹
same,Km,[5],1742 ± 630 µM
same,kcat,[5],0.863 ± 0.12 s⁻¹
same,kcat/Km,[5],587 ± 400 M⁻¹ s⁻¹
